The record followed here is publication PMC3755756.

The target of this assay is ubiquitin (15N-Ub) (UniProt P0CG48). The experiment in a line: NMR titration.

As to “V domain of S. castelli Bro1 (domain or fragment)”, the Kd relative to the V domains of Alix and HD-PTP (~50 μM) came to 5 fold.
